Results: patent publication US20250216381A1
Blank lines part the entries; values can stand above or below the binder they belong to.

Assays:
[1] = target: KRAS G12V presented by HLA-DRB1*07:01 (human), P01116; assay: cell-based or functional assay
[2] = target: KRAS G12V peptide on HLA-DRA*01:01 / HLA-DRB1*07:01 (human); assay: NFAT-luciferase; peptide titration in the Jurkat-NFAT and COS-7 system; full-length, on cells; conditions: chains Valpha:Vbeta

peptide concentration at which reactivity is still seen (peptide titration, Jurkat-NFAT & COS-7 system) [1]: 1 ng/mL
B1: 9976-TCR38-2 (TCR)
TCR alpha: AQSVTQLGSHVSVSEGALVLLRCNYSSSVPPYLFWYVQYPNQGLQLLLKYTTGATLVKGINGFEAEFKKSETSFHLTKPSAHMSDAAEYFCAVTEPGGYQKVTFGTGTKLQVIPNIQNPEPAVNIQNPEPAVYQLKDPRSQDSTLCLFTDFDSQINVPKTMESGTFITDKTVLDMKAMDSKSNGAIAWSNQTSFTCQDIFKETNATYPSSDVPCDATLTEKSFETDMNLNFQNLLVIVLRILLLKVAGFNLLMTLRLWSS
TCR beta: GAVVSQHPSRVICKSGTSVKIECRSLDFQATTMFWYRQFPKQSLMLMATSNEGSKATYEQGVEKDKFLINHASLTLSTLTVTSAHPEDSSFYICSATGQHAGANVLTFGAGSRLTVLEDLRNEDLRNVTPPKVSLFEPSKAEIANKQKATLVCLARGFFPDHVELSWWVNGKEVHSGVSTDPQAYKESNYSYCLSSRLRVSATFWHNPRNHFRCQVQFHGLSEEDKWPEGSPKPVTQNISAEAWGRADCGITSASYQQGVLSATILYEILLGKATLYAVLVSTLVVMAMVKRKNS

lowest peptide concentration with reactivity [2]: < 1 ng/mL
B2: 9976-TCR38-2 (protein)
chain 1: QSVTQLGSHVSVSEGALVLLRCNYSSSVPPYLFWYVQYPNQGLQLLLKYTTGATLVKGINGFEAEFKKSETSFHLTKPSAHMSDAAEYFCAVTEPGGYQKVTFGTGTKLQVIP
chain 2: AVVSQHPSRVICKSGTSVKIECRSLDFQATTMFWYRQFPKQSLMLMATSNEGSKATYEQGVEKDKFLINHASLTLSTLTVTSAHPEDSSFYICSATGQHAGANVLTFGAGSRLTVL
